Earlier results, collected in publication PMC10947368.

Legend:
[1] = target: IL-2Rβ/γc heterodimeric receptor (Homo sapiens) (UniProt P14784)
[2] = target: IL-2Rα (Homo sapiens) (UniProt P01589)
Sequence of UniProt P01589 (P01589 22-240): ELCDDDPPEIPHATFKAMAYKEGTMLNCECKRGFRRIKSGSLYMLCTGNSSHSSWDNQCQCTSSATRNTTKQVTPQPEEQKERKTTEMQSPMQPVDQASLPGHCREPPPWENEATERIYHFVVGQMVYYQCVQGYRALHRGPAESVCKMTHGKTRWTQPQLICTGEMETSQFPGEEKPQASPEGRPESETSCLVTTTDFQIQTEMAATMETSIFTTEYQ

Sequence of UniProt P14784 (P14784 27-240, chain 1 of 2): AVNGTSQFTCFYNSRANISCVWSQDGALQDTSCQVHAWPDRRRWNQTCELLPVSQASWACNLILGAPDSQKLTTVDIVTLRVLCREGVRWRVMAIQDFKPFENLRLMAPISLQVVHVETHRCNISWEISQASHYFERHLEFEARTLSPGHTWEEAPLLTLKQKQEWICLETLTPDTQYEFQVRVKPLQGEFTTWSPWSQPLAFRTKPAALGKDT
Sequence of UniProt P14784 (P31785 23-262, chain 2 of 2, further chain): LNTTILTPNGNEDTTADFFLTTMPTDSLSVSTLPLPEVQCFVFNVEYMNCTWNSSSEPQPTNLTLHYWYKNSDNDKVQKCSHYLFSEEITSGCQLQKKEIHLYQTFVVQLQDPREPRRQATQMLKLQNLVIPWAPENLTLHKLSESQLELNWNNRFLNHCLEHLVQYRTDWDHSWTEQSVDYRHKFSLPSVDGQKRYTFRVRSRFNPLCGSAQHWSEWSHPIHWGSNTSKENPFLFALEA

- Kd [1]: 1 nM
- Kd [2]: 10 nM
Substance: Interleukin-2 (from UniProt P60568)
